According to paper PMC3605031, “Mitogen-Activated Protein Kinase p38b Interaction with Delta Class Glutathione Transferases from the Fruit Fly, Drosophila melanogaster” (Journal of Insect Science, 2012):
Read-outs that look alike come from different tables or passages of the source. Each block holds one molecule with its values, some of them ahead of it.

Tests used:
[1] = biological target: Drosophila melanogaster p38b mitogen-activated protein kinase (D. melanogaster) (UniProt O61443)
[2] = biological target: Drosophila melanogaster p38b mitogen-activated protein kinase (D. melanogaster) (UniProt O61443); remark: listed apart in the source
[3] = biological target: Drosophila melanogaster p38b mitogen-activated protein kinase (D. melanogaster) (UniProt O61443); remark: listed apart in the source

UniProt O61443, sequence (O61443 whole entry): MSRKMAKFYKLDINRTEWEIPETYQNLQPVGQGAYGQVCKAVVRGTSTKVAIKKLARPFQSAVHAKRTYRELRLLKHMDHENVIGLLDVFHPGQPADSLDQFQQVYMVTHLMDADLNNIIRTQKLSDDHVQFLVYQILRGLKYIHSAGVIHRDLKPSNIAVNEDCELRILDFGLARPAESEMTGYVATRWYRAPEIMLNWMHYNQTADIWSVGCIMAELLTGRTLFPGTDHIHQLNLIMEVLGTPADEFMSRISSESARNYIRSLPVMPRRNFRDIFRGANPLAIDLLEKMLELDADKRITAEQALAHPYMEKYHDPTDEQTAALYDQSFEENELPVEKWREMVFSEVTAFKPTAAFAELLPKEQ

B1: Drosophila melanogaster Delta class glutathione transferase DmGSTD3 (enzyme)
chain: MVGKALGLEFNKKIINTLKGEQMNPDFIKINPQHSIPTLVDNGFTIWESRAILVYLVEKYGKDDALYPKDIQKQAVINQRLYFDMALMYPTLANYYYKAFTTGQFGSEEDYKKVQETFDFLNTFLEGQDYVAGDQYTVADIAILANVSNFDVVGFDISKYPNVARWYDHVKKITPGWEENWAGALDVKKRIEEKQNAAK
- fold change of p38b kinase activity toward ATF2 with GST at 1:1 molar ratio (ADP Quest assay) [1]: 1.8 fold
- fold change of p38b kinase activity toward jun with GST at 1:1 molar ratio (ADP Quest assay) [1]: 2.6 fold

B2: Drosophila melanogaster Delta class glutathione transferase DmGSTD5 (enzyme)
chain: MDFYYSPRGSGCRTVIMVAKALGVKLNMKLLNTLEKDQLKPEFVKLNPQHTIPTLVDNGFSIWESRAIAVYLVEKYGKDDTLFPKDPKKQALVNQRLYFDMGTLYDSFAKYYYPLFHTGKPGSDEDFKKIESSFEYLNIFLEGQNYVAGDHLTVADIAILSTVSTFEIFDFDLNKYPNVARWYANAKKVTPGWEENWKGAVELKGVFDARQAAAKQ
- decrease of GST activity toward CDNB after incubation with p38b at 1:1 molar ratio [2]: 10 % decrease
- decrease of GST activity toward DCNB after incubation with p38b at 1:1 molar ratio [2]: 40 % decrease
- fold change of p38b kinase activity toward ATF2 with GST at 1:1 molar ratio (ADP Quest assay) [1]: 1.4 fold
- fold change of p38b kinase activity toward jun with GST at 1:1 molar ratio (ADP Quest assay) [1]: 1.6 fold
- decrease of GST activity toward CDNB after incubation with p38b at 1:1 molar ratio, as told in the discussion [3]: 8 % decrease
- decrease of GST activity toward DCNB after incubation with p38b at 1:1 molar ratio, as told in the discussion [3]: 36 % decrease
- fold change of p38b kinase activity toward jun with GST at 1:1 molar ratio (ADP Quest assay), as told in the discussion [3]: 1.5 fold

B3: Drosophila melanogaster Delta class glutathione transferase DmGSTD2 (enzyme)
chain: MDFYYMPGGGGCRTVIMVAKALGLELNKKLLNTMEGEQLKPEFVKLNPQHTIPTLVDNGFSIWESRAIAVYLVEKYGKDDYLLPNDPKKRAVINQRLYFDMGTLYESFAKYYYPLFRTGKPGSDEDLKRIETAFGFLDTFLEGQEYVAGDQLTVADIAILSTVSTFEVSEFDFSKYSNVSRWYDNAKKVTPGWDENWEGLMAMKALFDARKLAAK
- increase of GST activity toward DCNB after incubation with p38b at 1:1 molar ratio [2]: 37 % increase
- decrease of GST activity toward CDNB after incubation with p38b at 1:1 molar ratio [3]: 5 % decrease

B5: Drosophila melanogaster Delta class glutathione transferase DmGSTD7 (enzyme)
chain: MPNLDLYNFPMAPASRAIQMVAKALGLELNSKLINTMEGDQLKPEFVRINPQHTIPTLVDNGFVIWESRAIAVYLVEKYGKPDSPLYPNDPQKRALINQRLYFDMGTLYDALTKYFFLIFRTGKFGDQEALDKVNSAFGFLNTFLEGQDFVAGSQLTVADIVILATVSTVEWFSFDLSKFPNVERWLKNAPKVTPGWEQNLESLQQGKKFLQDLQAAKEKEVKA
- increase of GST activity toward DCNB after incubation with p38b at 1:1 molar ratio [2]: 10 % increase

Further lines, results first:

- fold change of p38b kinase activity toward ATF2 with GST at 1:1 molar ratio (ADP Quest assay) [1]: 7.1 fold
- fold change of p38b kinase activity toward jun with GST at 1:1 molar ratio (ADP Quest assay) [1]: 10 fold
Molecule: Drosophila melanogaster Delta class glutathione transferase DmGSTD11b (enzyme)

- increase of GST activity toward DCNB after incubation with p38b at 1:1 molar ratio [2]: 30 % increase
- fold change of p38b kinase activity toward ATF2 with GST at 1:1 molar ratio (ADP Quest assay) [1]: 6.5 fold
- fold change of p38b kinase activity toward jun with GST at 1:1 molar ratio (ADP Quest assay) [1]: 8.1 fold
B4: Drosophila melanogaster Delta class glutathione transferase DmGSTD8 (enzyme)
chain: MDFYYHPCSAPCRSVIMTAKALGVDLNMKLLKVMDGEQLKPEFVKLNPQHCIPTLVDDGFSIWESRAILIYLVEKYGADDSLYPSDPQKKAVVNQRLYFDMGTLFQSFVEAIYPQIRNNHPADPEAMQKVDSAFGHLDTFLEDQEYVAGDCLTIADIALLASVSTFEVVDFDIAQYPNVARWYENAKEVTPGWEENWDGVQLIKKLVQERNE
